# Reference: patent US20030114404, “Vascular endothelial growth factor (VEGF) nucleic acid ligand complexes” (Gilead Sciences, Inc., published 2003)
# Positions count from the first letter of the chain named.
# B1: VP30.54 (ssRNA)
# RNA: GGGAGGACGAUGCGGAAGAAACGGAAGAAUUGGAGACACGCUCGUCAGACGACUCGCCCGA
# modifications: 2'-F pyrimidines
# B2: VT30.53 (ssRNA)
# RNA: B1 RNA with A17G, G18C, A19U, G35A, C39A, G40C, U42G
# modifications: 2'-F pyrimidines
# B3: VP30.12 (ssRNA)
# RNA: GGGAGGACGAUGCGGAAUACGGAAGAAUUGGAUACAUAUGCUCGUCAGACGACUCGCCCGA
# modifications: 2'-F pyrimidines
# B4: VT30.28 (ssRNA)
# RNA: GGGAGGACGAUGCGGAGAAUCAGUGAAUGCUUAUAAACCUCGUGUCAGACGACUCGCCCGA
# modifications: 2'-F pyrimidines
# B5: VP30.51 (ssRNA)
# RNA: GGGAGGACGAUGCGGAGUUUUGGAAGAAUUGGAUGUUCCGAUCGUCAGACGACUCGCCCGA
# modifications: 2'-F pyrimidines
# B6: VT30.41 (ssRNA)
# RNA: GGGAGGACGAUGCGGCAGGGUGAAUGCCAAUGUACUUUUCGCGUCAGACGACUCGCCCGA
# modifications: 2'-F pyrimidines
# B7: VP30.19 (ssRNA)
# RNA: GGGAGGACGAUGCGGCACUUUAGAAGAAUUGAAUUUCCCGCUGGUCAGACGACUCGCCCGA
# modifications: 2'-F pyrimidines
# B8: VP30.7 (ssRNA)
# RNA: GGGAGGACGAUGCGGAAGAAUUGGUCAUCGUCGUCUCCGCCUCCCCAGACGACUCGCCCGA
# modifications: 2'-F pyrimidines
# B9: VT30.21 (ssRNA)
# RNA: GGGAGGACGAUGCGGAUCAGUGAAUGCUUAUAGACCGUAUUGCGUCAGACGACUCGCCCGA
# modifications: 2'-F pyrimidines
# B10: VT30.20 (ssRNA)
# RNA: GGGAGGACGAUGCGGAAACGGAAGAAUUGGAUACCGCUACGUGUUCAGACGACUCGCCCGA
# modifications: 2'-F pyrimidines
# B11: VP40.41 (ssRNA)
# RNA: GGGAGGACGAUGCGGCAAAUUCAAGGUCGAGUUAUGCGUAGAUGUGGCUCCUGUGCAGACGACUCGCCCGA
# modifications: 2'-F pyrimidines
# B12: VT30.40 (ssRNA)
# RNA: GGGAGGACGAUGCGGAUUUGGAUGCAUGUCAAGGCGUUUUGCCCUCAGACGACUCGCCCGA
# modifications: 2'-F pyrimidines
# B13: VP30.41 (ssRNA)
# RNA: GGGAGGACGAUGCGGUAGGAAGUAUUGUAAGCGCCUCGUUUUCGCCAGACGACUCGCCCGA
# modifications: 2'-F pyrimidines
# B14: VT30.4 (ssRNA)
# RNA: GGGAGGACGAUGCGGCUUAAGUUUUGGAAGAAUUGAAUACUGGGUCAGACGACUCGCCCGA
# modifications: 2'-F pyrimidines
# B15: VP40.14 (ssRNA)
# RNA: GGGAGGACGAUGCGGGUACCAGAAUGAGCAACCGAAUGAAGAACUGGACGCUGCUCAGACGACUCGCCCGA
# modifications: 2'-F pyrimidines
# B16: VT30.8 (ssRNA)
# RNA: GGGAGGACGAUGCGGUUGAUCGAUUUUCCUGGCGUCCUUAUGGGUCAGACGACUCGCCCGA
# modifications: 2'-F pyrimidines
# B17: VP40.47 (ssRNA)
# RNA: GGGAGGACGAUGCGGCAGUUAAUUAAUUUGAGUUGUGAUGUGUGUCGUUAUGGGCCAGACGACUCGCCCGA
# modifications: 2'-F pyrimidines
# B18: VT30.15 (ssRNA)
# RNA: GGGAGGACGAUGCGGAACCAGUGAAUGCUUAUAAGACUGCUCGUCAGACGACUCGCCCGA
# modifications: 2'-F pyrimidines
# B19: VT30.18 (ssRNA)
# RNA: GGGAGGACGAUGCGGUUCAGAAUUGGCUGCGAUCCUUUUCCCCCUCAGACGACUCGCCCGA
# modifications: 2'-F pyrimidines
# B20: VT30.1 (ssRNA)
# RNA: GGGAGGACGAUGCGGAACUAGUGAAUGCUUAUACGACCGUGUUGUCAGACGACUCGCCCGA
# modifications: 2'-F pyrimidines
# B21: VT30.29 (ssRNA)
# RNA: B20 RNA with C18U, U19C, C34G, G35C, A36U, U40C, U43G
# modifications: 2'-F pyrimidines
# B22: VT30.54 (ssRNA)
# RNA: GGGAGGACGAUGCGGGACUAGGUGAAUGCCAAUAUUCUUCUCCGUCAGACGACUCGCCCGA
# modifications: 2'-F pyrimidines
# B23: VP30.31 (ssRNA)
# RNA: GGGAGGACGAUGCGGUAACCGAUUGAACUUCUUGGACGCUACCGUCAGACGACUCGCCCGA
# modifications: 2'-F pyrimidines
# B24: VT30.44 (ssRNA)
# RNA: GGGAGGACGAUGCGGAAUCAGUGAAUGCUUAUACAUCCGCUCGGUCAGACGACUCGCCCGA
# modifications: 2'-F pyrimidines
# B25: VT30.12 (ssRNA)
# RNA: GGGAGGACGAUGCGGUCUUUGGGUUUUUGCCAACGGUUUUCGCUCAGACGACUCGCCCGA
# modifications: 2'-F pyrimidines
# B26: VP30.1 (ssRNA)
# RNA: B25 RNA with G22A
# modifications: 2'-F pyrimidines
# B27: VP30.16 (ssRNA)
# RNA: GGGAGGACGAUGCGGAUGAUCGCGUAGGAAGUAUUGGAAGGCCCUCAGACGACUCGCCCGA
# modifications: 2'-F pyrimidines
# B28: VT30.13 (ssRNA)
# RNA: GGGAGGACGAUGCGGCAGGAUUUUGGAAGAAUUGGAUAUUGGCCGCAGACGACUCGCCCGA
# modifications: 2'-F pyrimidines
# B29: VP30.25 (ssRNA)
# RNA: B28 RNA with A17G, G45U
# modifications: 2'-F pyrimidines
# B30: VP40.4 (ssRNA)
# RNA: GGGAGGACGAUGCGGGAAGAAUUGAUGUUGUAUUGUCCUUCCGAUUUCCUGCCGUCAGACGACUCGCCCGA
# modifications: 2'-F pyrimidines
# B31: VP40.17 (ssRNA)
# RNA: GGGAGGACGAUGCGGUGAACCGAUGGAAUCGCUUGGACGCUCAUCGCACGUUGCUCAGACGACUCGCCCGA
# modifications: 2'-F pyrimidines
# B32: VT30.9 (ssRNA)
# RNA: GGGAGGACGAUGCGGUCAACCGGUUGAAUAUUUGGUCGCUGACCUCAGACGACUCGCCCGA
# modifications: 2'-F pyrimidines
# B33: VP30.43 (ssRNA)
# RNA: GGGAGGACGAUGCGGUAACCGAAUUGAAGUUAUUGGACGCUACCUCAGACGACUCGCCCGA
# modifications: 2'-F pyrimidines
# B34: VT30.7 (ssRNA)
# RNA: GGGAGGACGAUGCGGUAACCAGUGGAAGAAUUGGCUGCUAUCCUCAGACGACUCGCCCGA
# modifications: 2'-F pyrimidines
# B35: VP40.43 (ssRNA)
# RNA: GGGAGGACGAUGCGGACAGAAGAAUUGGGCUUCGCAUUAUCCUCUGUCAGCCGCCAGACGACUCGCCCGA
# modifications: 2'-F pyrimidines
# B36: VT30.2 (ssRNA)
# RNA: GGGAGGACGAUGCGGAUCAGUGAAUGCUUAUAGACCGCCUCCGUCAGACGACUCGCCCGA
# modifications: 2'-F pyrimidines
# B37: VP40.53 (ssRNA)
# RNA: GGGAGGACGAUGCGGUGAGAGAAACGGAAGAAUUGGAUACGAUACUCAUCGCGCUCAGACGACUCGCCCGA
# modifications: 2'-F pyrimidines
# B38: VT30.23 (ssRNA)
# RNA: GGGAGGACGAUGCGGGAUCACGAUACUUGACGAUUUUCCUCUCCUCAGACGACUCGCCCGA
# modifications: 2'-F pyrimidines
# B39: VT30.11 (ssRNA)
# RNA: GGGAGGACGAUGCGGAAUCAGUGAAUGCUUAUAGCUCCCGCGUCCUCAGACGACUCGCCCGA
# modifications: 2'-F pyrimidines
# B40: VP40.44 (ssRNA)
# RNA: GGGAGGACGAUGCGGAUCUGUUGAACUGGGUUUUGCCGACGGUUACGCUUUUGCUCAGACGACUCGCCCGA
# modifications: 2'-F pyrimidines
# B41: VP30.13 (ssRNA)
# RNA: GGGAGGACGAUGCGGGAUAACAGAAGAAUUGGUGAACAACGUGGUCAGACGACUCGCCCGA
# modifications: 2'-F pyrimidines
# B42: VT30.52 (ssRNA)
# RNA: GGGAGGACGAUGCGGAAGAAUUGAGCAUUCCUUCUCCUUGUGCCUCAGACGACUCGCCCGA
# modifications: 2'-F pyrimidines
# B43: VT30.10 (ssRNA)
# RNA: GGGAGGACGAUGCGGAACGGAAGAAUUGGAUACGUAGCAUGCGUCAGACGACUCGCCCGA
# modifications: 2'-F pyrimidines
# B44: VT30.38 (ssRNA)
# RNA: GGGAGGACGAUGCGGAGCGGUAUUCUGUUCGGUCGUUUUCCUCCUCAGACGACUCGCCCGA
# modifications: 2'-F pyrimidines
# B45: VP40.9 (ssRNA)
# RNA: GGGAGGACGAUGCGGGAGCAGAACCGAUAGAAGAAUUGGACGCUCAGCUCCGGGUCAGACGACUCGCCCGA
# modifications: 2'-F pyrimidines
# B46: VT30.27 (ssRNA)
# RNA: GGGAGGACGAUGCGGGAUCACGGCUUUGCACGAUCUUCUUCUCCUCAGACGACUCGCCCGA
# modifications: 2'-F pyrimidines
# Target: VEGF165 (Homo sapiens, UniProt P15692-4 P15692-4:27-191)
# Sequence (P15692 other isoform, or with tags, fused parts or gaps): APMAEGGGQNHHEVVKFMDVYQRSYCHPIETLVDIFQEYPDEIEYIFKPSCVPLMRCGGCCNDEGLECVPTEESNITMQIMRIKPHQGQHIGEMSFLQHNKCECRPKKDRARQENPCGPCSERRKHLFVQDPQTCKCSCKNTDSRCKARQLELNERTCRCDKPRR
# Assay: filter; 37 C
# Details: tags: carrier-free, Sf 21 insect cell expressed, R & D Systems; chain copies: 2 (inferred)
# Experimental: Nucleic Acid Ligands radiolabeled during transcription by incorporation of α-[³²P]-labeled NTPs, or after synthesis using γ-[³²P]-ATP and T4 polynucleotide kinase, were incubated in low concentration (between 20 and 70 pM) with varying concentrations of VEGF or other growth factors at 37° C. for 15 minutes. Incubations were in TBS, PBS, or HEPES-buffered saline (HBS), pH 7.4, with or without the addition of supplemental divalent cations. Samples were passed through prewashed 0.45 μ Type HA filters (Millipore) followed by a 5-10 ml wash with binding buffer. Filters were immersed in scintillant and counted to quantitate the amount of protein-bound RNA retained by each filter. The equilibrium dissociation constant (KD) of Nucleic Acid Ligand binding to a specific protein was calculated from the data points as described in Green et al. (1996) Biochem. 35: 14413-14424.
row,Binder,Kd [nM]
1,B1,0.01
2,B2,0.01
3,B3,0.007
4,B4,0.06
5,B5,0.09
6,B6,0.04
7,B7,0.009
8,B8,3
9,B9,0.006
10,B10,0.004
11,B11,11
12,B12,0.03
13,B13,0.007
14,B14,0.02
15,B15,0.008
16,B16,0.034
17,B17,0.096
18,B18,0.003
19,B19,0.004
20,B20,0.01
21,B21,0.01
22,B22,0.01
23,B23,0.006

row,Binder,Kd [nM]
1,B24,0.01
2,B25,0.009
3,B26,32
4,B27,0.006
5,B28,0.01
6,B29,0.02
7,B30,0.2
8,B31,0.01
9,B32,0.03
10,B33,0.005
11,B34,0.01
12,B35,0.03
13,B36,0.002
14,B37,0.008
15,B38,0.019
16,B39,0.004
17,B40,0.043
18,B41,0.01
19,B42,9
20,B43,0.002
21,B44,0.005
22,B45,0.03
23,B46,0.12
